Laboratory results taken from article PMC3237458, “PEGylation Potentiates the Effectiveness of an Antagonistic Peptide That Targets the EphB4 Receptor with Nanomolar Affinity” (PLoS ONE, 2011).

Biological target: EphB4 Fc (UniProt P54761)
Sequence (P54761 16-539): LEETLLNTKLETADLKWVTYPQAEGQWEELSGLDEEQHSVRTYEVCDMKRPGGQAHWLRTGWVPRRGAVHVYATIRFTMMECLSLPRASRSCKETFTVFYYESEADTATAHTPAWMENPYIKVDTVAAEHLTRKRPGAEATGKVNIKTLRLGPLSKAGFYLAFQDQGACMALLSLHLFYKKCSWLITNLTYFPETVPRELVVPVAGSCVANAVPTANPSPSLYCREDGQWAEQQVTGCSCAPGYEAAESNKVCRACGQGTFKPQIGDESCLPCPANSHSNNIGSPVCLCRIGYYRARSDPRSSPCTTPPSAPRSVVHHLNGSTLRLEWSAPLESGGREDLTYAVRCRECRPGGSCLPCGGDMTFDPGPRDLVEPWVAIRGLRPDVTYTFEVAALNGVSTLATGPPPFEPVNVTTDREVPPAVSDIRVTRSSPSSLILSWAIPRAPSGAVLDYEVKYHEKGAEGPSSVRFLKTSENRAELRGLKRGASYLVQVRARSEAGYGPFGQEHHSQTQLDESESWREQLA

PEGylated TNYL-RAW (PEG-TNYL-RAW) (peptide)
inhibition of ephrin-B2 Fc-induced tyrosine phosphorylation of endogenous EphB4 in B16 melanoma cells (blocks EphB4 with ephrin-B2); 2 µM peptide reduce phosphorylation to undetectable levels: 90 nM
